Data on one protein can be found in publication PMC3815950 (Microbial biotechnology, 2009).

The series “SEC” deals with the molecule itself. In words: SEC. For orientation: Size exclusion chromatography separates by hydrodynamic size, large species first.
Substrate in series [1]: [H][C@]12SCC(COC(C)=O)=C(C(=O)O)N1C(=O)[C@H]2NC(=O)CCC[C@@H](N)C(=O)O
Kind of series: acetate release, Michaelis-Menten. The note with it: 50 mM sodium phosphate pH 6.5, 60 °C. In kind it is biochemical, Thermotoga maritima.

“And” between values parts separate entries of the source, which are not always exact repeats. Identical values can stand only once.

The term stoichiometry N denotes a count of units in the complex or per binding partner. By Km is commonly meant the substrate concentration at which the rate is half of its maximum. What is called Vmax is the top rate of the reaction or transport when substrate is in excess. One may read the kcat as the number of substrate molecules converted per active site and unit of time at saturation. One may read the kcat/Km as the turnover number divided by the Michaelis constant.

B1: Thermotoga maritima acetyl xylan esterase AxeA (enzyme)
chain: MAFFDLPLEELKKYRPERYEEKDFDEFWEETLAESEKFPLDPVFERMESHLKTVEAYDVTFSGYRGQRIKGWLLVPKLEEEKLPCVVQYIGYNGGRGFPHDWLFWPSMGYICFVMDTRGQGSGWLKGDTPDYPEGPVDPQYPGFMTRGILDPRTYYYRRVFTDAVRAVEAAASFPQVDQERIVIAGGSQGGGIALAVSALSKKAKALLCDVPFLCHFRRAVQLVDTHPYAEITNFLKTHRDKEEIVFRTLSYFDGVNFAARAKIPALFSVGLMDNICPPSTVFAAYNYYAGPKEIRIYPYNNHEGGGSFQAVEQVKFLKKLFEKG
Regarding B1, the “stoichiometry N” value in the series “SEC” was 6 and 2. In addition, in series [1], the Michaelis constant (Km) came to 4.18 ± 0.97 mM, the maximum rate (Vmax) was found to be 19.2 µmol/min/mg, the catalytic constant (kcat) is 11.8 s⁻¹ and the kcat/Km turned out to be 2830 M⁻¹ s⁻¹.
